Experimental data: patent US20240287161A1 (NATIONAL UNIVERSITY CORPORATION TOTTORI UNIVERSITY, published 2024)

Columns and labels:
[1] = target: T1, MERS-CoV trimeric S protein (amino acids 13-1296) with T4 foldon, histidine tag and strep-tag (MERS-CoV, UniProt K9N5Q8 16-1293); experiment: ELISA on coated S-trimeric antigen, anti-human IgG-HRP [Human IgG1, NT-108]
[2] = target: T1, MERS-CoV trimeric S protein (amino …); experiment: ELISA on coated S-trimeric antigen, anti-human IgG-HRP [Human IgG1, NT-193]
[3] = target: T1, MERS-CoV trimeric S protein (amino …); experiment: ELISA on coated S-trimeric antigen, anti-human IgG-HRP [Human IgG3, NT-193]

B1: NT-108 (recombinant human IgG1/kappa antibody) (antibody, V domains shown)
VH: EVQLQQSGPGLVKPSQTLSLTCSISGDSVSSNSAAWNWIRQSPSRGLEWLGRTYYRSKWYNDYAGTVKSRIAINPDTSKNQFSLHLNSVTPEDTAVYFCARVISVAGYAFDIWGQGTMVTVSS
VL: EIVLTQSPGTLSLSPGERATLSCRASQSVSSTFLAWYQQKPGQAPRLLIYGASYMATGIPDRFSGSGSGTDFTLTISRLEPEDFAVYYCQQYGSSLTFGGGTKLEIK
- binding result [1]: no binding (tested: 1000 ng/ml)

B2: NT-193 (recombinant human IgG1/kappa antibody) (antibody, V domains shown)
VH: EVQLQQWGAGLLKPSETLSLTCAVYGGSFSGYYWSWIRQPPGKGLEWIGEINHSGSTNYNPSLKSRVTISVDTSKNQFSLKLSSVTAADTAVYYCARGWDLDYYYGMDVWGQGTTVTVSS
VL: DIRMTQSPSAMSASVGDRVTVTCRASQGIGNYLAWFQLKPGKVPKRLIYAASSLQSGVPARFSGGGSGTEFTLTISSLQPEDFATYYCLQHGFLPWTFGQGTKLEIK
- binding result [2]: no binding (tested: 1000 ng/ml)

B3: NT-193, human IgG3 subclass (antibody, V domains shown)
VH: B2 VH
VL: B2 VL
- binding result [3]: no binding (tested: 1000 ng/ml)
